Source: patent CN114591432A (NANJING FUJIEKANG BIOTECHNOLOGY CO LTD, dated 2022)

Target: T1, 人源TNFα重组胞外结构域蛋白 (human, UniProt P01375 57-233)
T1 construct: range 57-233; No purification tag is described; also called 人源重组TNFα蛋白; TNFα蛋白
Assay: ELISA of crude VHH extract on coated TNFα, anti-HA-HRP; positive if OD above 5 times the control well

T1 sequence (P01375 57-233 limits assumed): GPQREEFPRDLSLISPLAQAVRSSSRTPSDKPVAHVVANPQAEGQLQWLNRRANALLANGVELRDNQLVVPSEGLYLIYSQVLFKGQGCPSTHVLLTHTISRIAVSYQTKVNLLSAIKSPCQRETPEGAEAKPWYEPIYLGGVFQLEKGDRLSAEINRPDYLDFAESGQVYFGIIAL

Binder	binding result
单域抗体2B8 (VHH, Crude extract from E. coli TG1 clones (pMECS), detected through an HA tag) VHH: ESGGGSVQAGGSLRLSCAASGYTFSTYCMAWFRQAPGEEREGVAYIDTDGSTGHADSVRGRFTVSRDNAKNTLYLQMNSLKPEDTAIYYCAARWTRLCGWWSYPTGSWGQGTQVTVSS	binds
单域抗体1E9 (VHH, Crude extract from E. coli TG1 clones (pMECS), detected through an HA tag) VHH: ESGGGSVQSGGSLRLSCTVFGATFNGHAMAWFRQAPGKDREGVSCISMSGRSTAYADSVKGRFTISRDNAKNTLYLQMNGLKPEDTAMYYCAAAAFGYCSGPWSSSHGEYMYWGQGTQVTVSS	binds
单域抗体1H10 (VHH, Crude extract from E. coli TG1 clones (pMECS), detected through an HA tag) VHH: ESGGGLVQAGGSLRLSCTVFGATFNGHAMAWFRQAPGKDREGVSCISMSGRSTAYADSVKGRFTISRDNAKNTLYLQMNGLKPEDTAMYYCAAAAFGYCSGPWSSSHGEYMYWGQGTQVTVSS	binds

Results, then the binder that gave them:

binding result	Binder
binds	单域抗体2B1 (VHH, Crude extract from E. coli TG1 clones (pMECS), detected through an HA tag) VHH: ESGGGSVQSGGSLRLSCQASGYTSSSYCMGWFRQVPGKEREGVASIDSGGFTHTANSVKGRFTISQDNAKNTLYLQMNSLKPEDTAMYYCAATPREFGWCSLSGHFNYWGQGTQVTVSS
binds	单域抗体4A5 (VHH, Crude extract from E. coli TG1 clones (pMECS), detected through an HA tag) VHH: ESGGGLVQPGGSLRLSCTVSGLTFNDYALAWFRQAPGKDREGVSCISWSGGSTAYADSVKGRFTISRDNAKNTVYLQMNSLKPEDTAMYYCAAPAFRYCSGPWSSSHGEYIYWGQGTQVTVSS
